Data from patent publication US8808980B2, “Stabilized open form transglutaminase as a diagnostic indictor for autoimmune diseases” (Zedira GmbH, priority 2009, dated 2014).

Columns and labels:
[1] = enzymatic activity of truncated tissue transglutaminases; assay type: biochemical
Description: Tissue transglutaminase fragments were produced recombinantly in E. coli as deletion mutants lacking C-terminal amino acids from positions S538 and E447 according to example 1 an methods known to persons skilled in the art. The resulting truncated tissue transglutaminases still were enzymatically active, although the activity was reduced to 5 and 1% respectively compared to the full length enzyme. Transglutaminase 6 fragment lacking the C-terminal amino acids from position G594 was produced accordingly.

[2] = tested on: Patient F (celiac disease); experiment: hyposensitisation of a celiac disease patient with open TG2; assay type: in vivo, human; conditions: subcutaneous, 6 months weekly rising doses, then monthly 1.5 years; then 1 g gluten per day
Description: Patient F suffered from celiac disease and has been on gluten free diet for 8 years. […] Patient F has been injected subcutaneously a solution containing open TG2, which has been produced according to example 1. Injections have been repeated weekly over a period of six months; the doses have been increased over this period in order to reach the maintenance dose. The application has then been repeated applying the maintenance dose once a month for 1.5 years. Patient F was kept on a strict gluten free diet for this whole hyposensitisation therapy period. Later-on the patient started to consume minor amounts (1 g per day) of gluten in addition to the gluten free diet.

Molecule | enzymatic activity compared to the full length enzyme [1] [%] | celiac disease symptoms after hyposensitisation therapy [2]
TG2 ΔE447: tissue transglutaminase deletion mutant lacking C-terminal amino acids from position E447 (protein, UniProt P21980 1-446, looked up, fragment) MAEELVLERCDLELETNGRDHHTADLCREKLVVRRGQPFWLTLHFEGRNYEASVDSLTFSVVTGPAPSQEAGTKARFPLRDAVEEGDWTATVVDQQDCTLSLQLTTPANAPIGLYRLSLEASTGYQGSSFVLGHFILLFNAWCPADAVYLDSEEERQEYVLTQQGFIYQGSAKFIKNIPWNFGQFEDGILDICLILLDVNPKFLKNAGRDCSRRSSPVYVGRVVSGMVNCNDDQGVLLGRWDNNYGDGVSPMSWIGSVDILRRWKNHGCQRVKYGQCWVFAAVACTVLRCLGIPTRVVTNYNSAHDQNSNLLIEYFRNEFGEIQGDKSEMIWNFHCWVESWMTRPDLQPGYEGWQALDPTPQEKSEGTYCCGPVPVRAIKEGDLSTKYDAPFVFAEVNADVVDWIQQDDGSVHKSINRSLIVGLKISTKSVGRDEREDITHTYKYP | 1 | –
open TG2: recombinant TG2 stabilized in its open form by reaction with the inhibitor Z-PIMen(OEt)-QPL-OMe (protein, UniProt P21980 2-687, looked up, Z-PIMen(OEt)-QPL-OMe inhibitor adduct) Protein-glutamine …: AEELVLERCDLELETNGRDHHTADLCREKLVVRRGQPFWLTLHFEGRNYEASVDSLTFSVVTGPAPSQEAGTKARFPLRDAVEEGDWTATVVDQQDCTLSLQLTTPANAPIGLYRLSLEASTGYQGSSFVLGHFILLFNAWCPADAVYLDSEEERQEYVLTQQGFIYQGSAKFIKNIPWNFGQFEDGILDICLILLDVNPKFLKNAGRDCSRRSSPVYVGRVVSGMVNCNDDQGVLLGRWDNNYGDGVSPMSWIGSVDILRRWKNHGCQRVKYGQCWVFAAVACTVLRCLGIPTRVVTNYNSAHDQNSNLLIEYFRNEFGEIQGDKSEMIWNFHCWVESWMTRPDLQPGYEGWQALDPTPQEKSEGTYCCGPVPVRAIKEGDLSTKYDAPFVFAEVNADVVDWIQQDDGSVHKSINRSLIVGLKISTKSVGRDEREDITHTYKYPEGSSEEREAFTRANHLNKLAEKEETGMAMRIRVGQSMNMGSDFDVFAHITNNTAEEYVCRLLLCARTVSYNGILGPECGTKYLLNLNLEPFSEKSVPLCILYEKYRDCLTESNLIKVRALLVEPVINSYLLAERDLYLENPEIKIRILGEPKQKRKLVAEVSLQNPLPVALEGCTFTVEGAGLTEEQKTVEIPDPVEAGEEVKVRMDLLPLHMGLHKLVVNFESDKLKAVKGFRNVIIGPA | – | No celiac disease symptoms could be measured clinically or by biopsy or serology
TG2 ΔS538: tissue transglutaminase deletion mutant lacking C-terminal amino acids from position S538 (protein, UniProt P21980 1-537, looked up, fragment) MAEELVLERCDLELETNGRDHHTADLCREKLVVRRGQPFWLTLHFEGRNYEASVDSLTFSVVTGPAPSQEAGTKARFPLRDAVEEGDWTATVVDQQDCTLSLQLTTPANAPIGLYRLSLEASTGYQGSSFVLGHFILLFNAWCPADAVYLDSEEERQEYVLTQQGFIYQGSAKFIKNIPWNFGQFEDGILDICLILLDVNPKFLKNAGRDCSRRSSPVYVGRVVSGMVNCNDDQGVLLGRWDNNYGDGVSPMSWIGSVDILRRWKNHGCQRVKYGQCWVFAAVACTVLRCLGIPTRVVTNYNSAHDQNSNLLIEYFRNEFGEIQGDKSEMIWNFHCWVESWMTRPDLQPGYEGWQALDPTPQEKSEGTYCCGPVPVRAIKEGDLSTKYDAPFVFAEVNADVVDWIQQDDGSVHKSINRSLIVGLKISTKSVGRDEREDITHTYKYPEGSSEEREAFTRANHLNKLAEKEETGMAMRIRVGQSMNMGSDFDVFAHITNNTAEEYVCRLLLCARTVSYNGILGPECGTKYLLNLNLEPF | 5 | –
